The values that follow come from patent US11590206B2, “Liquid pharmaceutical composition” (SANOFI, priority 2017, dated 2023).

Holding throughout (format): physicochemical
A short description of series [1]: Small angle X-ray scattering (SAXS): oligomer size and shape. The conditions noted are these: in the formulations. The method, then:
SAXS measurements were performed at a synchrotron light source (DESY Hamburg). The scattering data from all samples were collected loading 20 microliters of solutions into the capillary and flowing the whole volume across the X-ray beam. Per each sample 20 frames of 0.045 s exposure were collected and, after a statistical consistency check, averaged. The corresponding signals collected for the placebo was then subtracted. Each sample measurement was repeated at least twice to ensure reproducibility.

Series [2] can be described thus: ThT assay: fibrillation tendency under thermal and mechanical stress. As to the method: Investigations were carried out to determine fibrillation tendencies under stress conditions using a ThT assay. […] Amyloid-like structures show a beta-sheet rich structure. Fibrillation of peptide solutions is induced by thermic and mechanical stress. Samples are stressed under defined conditions using Fluoroskan Ascent FL.
For the tests in Fluoroskan Ascent FL 200 μL sample were placed into 96 well microtiterplate PS, flat bottom, Greiner Fluotrac No. 655076. Plates were sealed with Scotch Tape (Quiagen). […] The kinetic was monitored by measuring fluorescence intensity every 20 minutes.
Solutions were transferred in 2 mL Eppendorf vials and 20 μL of a 10.1 mM ThT solution in H2O were added to 2 mL of peptide solution to receive a final concentration of 100 μM ThT. For each sample eight replicates were tested.

Series [3] can be described thus: FTIR spectroscopy: ratio of alpha and beta sheets. As to conditions: 5.0 mg/ml and 75 mg/mL named; phosphate buffer, m-cresol, sodium chloride (Table 2). As to the method: The physical and chemical stability of the stored formulations is determined with the help of the following tests: • Dynamic light scattering (DLS) method was applied to access the subvisible particle size distribution • Fourier transform infrared spectroscopy (FTIR) to analyze the ratio of alpha and beta sheets • Chemical stability (purity and impurities), determined by HPLC • Proteins of high molecular weight, determined by HPSEC
FTIR spectroscopy is a suitable method for the determination of a protein's secondary structure. The vibration giving the most pronounced signal in FTIR spectroscopy is the C═O stretching vibration of amide groups resulting in a signal in the so-called amide I-region (1700-1600 cm^−1). This vibration is sensitive to the hydrogen-bonding pattern, dipole-dipole interactions and the geometry of the polypeptide backbone. […]
As a consequence, the individual component bands that represent the different structural elements, such as α-helices, β-sheets, turns and irregular structures are often not resolved and difficult to identify in the broad amide I-band contours of the experimentally obtained spectra. […] The absolute values for protein conformation determined by the chemometric method can therefore be systematically biased, however, the repeatability of results for samples of the same protein is usually in the range of +/−2%. […]

The nature of series [4]: Rheology with rotation and capillary rheometer. As to conditions: Table 2 composition, 5.0 mg/ml; shear rates>1/s. The method, then:
To this end, a composition as described above in Table 2 containing 5.0 mg/ml SEQ ID NO.: 2 was added to a rheometer and subjected to measurement. The experiments were performed with a MCR rotation rheometer (Anton Paar) and with capillary rheometer Kinexus (Malvern). […] High shear rates have no influence on the shear viscosity of the formulation (see also FIG. 7).

Regarding “H-dSer-Q-G-T-F-T-S-D-L-S-K-Q-K(γE-x53)-ESKAAQDFIEWLKAGGPSSGAPPPS-NH2 (HXQGTFTSDLSKQKESKAAQDFIEWLKAGGPSSGAPPPS; D-Ser1, K14 gammaE-palmitoyl lipidation, C-terminal amide; Exendin-4 analogue; MOD_RES (2)..(2) Xaa is a D-Ser; MOD_RES (14)..(14) Lys is functionalized at the amino side chain group as Lys((S)-4-carboxy-4-hexadecanoylamino-butyryl); MOD_RES (39)..(39) Ser is modified with an NH2 group) [SEQ ID NO.: 2, γE-x53 is (S)-4-Carboxy-4-hexadecanoylamino-butyryl-]”, in series [1], the “Oligomeric state (best fit of SAXS curve)” value was “all hexameric”. In addition, the “Fibrillation (ThT fluorescence)” value in series [2] (1 mg/ml in PBS, 100 h incubation at +37° C. and 500 rpm) is given as “negligible fibrillation”; in series [2] (5 mg/mL in phosphate buffer, NaCl and m-cresol, pH≈6.6, 100 hours at 37° C. shaking (500 rpm)), “no fibrillation was observed”. The “measured value of alpha sheets (FTIR)” value in series [3] is 48.9%. In series [3], the “measured value of beta sheets (FTIR)” value stood at 13.1%. Moreover, the “fluid property (shear stress, viscosity vs shear rate)” value in series [4] was “Newtonian fluid”.
